Consider 36 molecules from patent US20250215412A1 (NOVOZYMES A S, published 2025).

Values joined by “and” are separate entries in the source; they are usually repeats but may differ in a detail not shown here. Identical values can stand only once.

For the test, the target named is T1, Chryseobacterium sp-62563 deamidase polypeptide (second polypeptide, deamidase domain), wildtype (Chryseobacterium sp-62563).
T1 sequence: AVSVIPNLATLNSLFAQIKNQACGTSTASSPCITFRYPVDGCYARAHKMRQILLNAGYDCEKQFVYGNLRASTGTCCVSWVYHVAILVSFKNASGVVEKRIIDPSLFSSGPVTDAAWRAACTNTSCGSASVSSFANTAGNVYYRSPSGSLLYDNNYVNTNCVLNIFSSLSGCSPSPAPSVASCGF
Nature of the test: cell-based or functional assay.

The molecule “Chryseobacterium sp-62563 propeptide S97SK” displayed a NanoDSF thermal unfolding temperature of 81.4 ° C and a Relative activity of maturated deamidase (% initial rate) above 100.
In turn, “Chryseobacterium sp-62563 propeptide I92*” displayed a NanoDSF thermal unfolding temperature of 77.5 ° C.
“Chryseobacterium sp-62563 propeptide S97SS” registered a NanoDSF thermal unfolding temperature of 81.1 ° C and a Relative activity of maturated deamidase (% initial rate) above 100.
In turn, “Chryseobacterium sp-62563 propeptide F95*” gave a NanoDSF thermal unfolding temperature of 77.1 ° C and a Relative activity of maturated deamidase (% initial rate) above 100.
For “Chryseobacterium sp-62563 propeptide F95FA”, in that order: 79.8 ° C and above 100.
For “Chryseobacterium sp-62563 propeptide T100*”, in that order: 81.7 ° C and 98.
For “Chryseobacterium sp-62563 propeptide K96*”, in that order: 79.5 ° C and above 100.
For the molecule “Chryseobacterium sp-62563 propeptide S97SY”, the NanoDSF thermal unfolding temperature came out at 82 ° C and the Relative activity of maturated deamidase (% initial rate) was determined as 68.
The like results for “Chryseobacterium sp-62563 propeptide S97ST” were, in that order, 81.6 ° C and 99.
“Chryseobacterium sp-62563 propeptide P44PA” showed a NanoDSF thermal unfolding temperature of 69.2 ° C.
For “Chryseobacterium sp-62563 propeptide S97SI”, the Relative activity of maturated deamidase (% initial rate) amounted to 30.
The molecule “Chryseobacterium sp-62563 propeptide D90DA” returned a NanoDSF thermal unfolding temperature of 80.3 ° C and a Relative activity of maturated deamidase (% initial rate) above 100.
Regarding “Chryseobacterium sp-62563 propeptide T100TA”, the Relative activity of maturated deamidase (% initial rate) turned out to be 41.
Still for that read-out and setting: as for “Chryseobacterium sp-62563 propeptide S97SF”, the figure is 50.
Molecule “Chryseobacterium sp-62563 propeptide V98*” displayed a NanoDSF thermal unfolding temperature of 78.7 ° C.

B1: Chryseobacterium sp-62563 propeptide V25H (protein)
chain: NQDPNLVAKESNETAMKDFGKTVPHGIEKEDGKFKISFMVTAQPYEIKDSKENAAYISMIKTAVENETPIHVFLKANTNEIAKVDKATDDDIRYFKSVFTKEVKEENRK
B1 returned a Leakage activity of 1% and a Relative activity of maturated deamidase (% initial rate) of 76.

B2: Chryseobacterium sp-62563 propeptide Q43V (protein)
chain: NQDPNLVAKESNETAMKDFGKTVPVGIEKEDGKFKISFMVTAVPYEIKDSKENAAYISMIKTAVENETPIHVFLKANTNEIAKVDKATDDDIRYFKSVFTKEVKEENRK
For the molecule B2, the Leakage activity came to 0%.

B3: Chryseobacterium sp-62563 propeptide Q43R (protein)
chain: NQDPNLVAKESNETAMKDFGKTVPVGIEKEDGKFKISFMVTARPYEIKDSKENAAYISMIKTAVENETPIHVFLKANTNEIAKVDKATDDDIRYFKSVFTKEVKEENRK
Turning to B3, the Leakage activity came out at 0% and the Relative activity of maturated deamidase (% initial rate) amounted to 59.

B4: Chryseobacterium sp-62563 propeptide Q43K (protein)
chain: NQDPNLVAKESNETAMKDFGKTVPVGIEKEDGKFKISFMVTAKPYEIKDSKENAAYISMIKTAVENETPIHVFLKANTNEIAKVDKATDDDIRYFKSVFTKEVKEENRK
Molecule B4 had a Leakage activity of 3% and a Relative activity of maturated deamidase (% initial rate) of 64.

B5: Chryseobacterium sp-62563 propeptide Y45G (protein)
chain: NQDPNLVAKESNETAMKDFGKTVPVGIEKEDGKFKISFMVTAQPGEIKDSKENAAYISMIKTAVENETPIHVFLKANTNEIAKVDKATDDDIRYFKSVFTKEVKEENRK
Molecule B5 came in with a Leakage activity of 2%, a NanoDSF thermal unfolding temperature of 65.2 ° C and a Relative activity of maturated deamidase (% initial rate) above 100.

B6: Chryseobacterium sp-62563 propeptide V40P (protein)
chain: NQDPNLVAKESNETAMKDFGKTVPVGIEKEDGKFKISFMPTAQPYEIKDSKENAAYISMIKTAVENETPIHVFLKANTNEIAKVDKATDDDIRYFKSVFTKEVKEENRK
The molecule B6 registered a Leakage activity of 0% and a Relative activity of maturated deamidase (% initial rate) of 39.

B7: Chryseobacterium sp-62563 propeptide Q43D (protein)
chain: NQDPNLVAKESNETAMKDFGKTVPVGIEKEDGKFKISFMVTADPYEIKDSKENAAYISMIKTAVENETPIHVFLKANTNEIAKVDKATDDDIRYFKSVFTKEVKEENRK
For B7, the Leakage activity is 0% and the Relative activity of maturated deamidase (% initial rate) was above 100.

B8: Chryseobacterium sp-62563 propeptide Y45N (protein)
chain: NQDPNLVAKESNETAMKDFGKTVPVGIEKEDGKFKISFMVTAQPNEIKDSKENAAYISMIKTAVENETPIHVFLKANTNEIAKVDKATDDDIRYFKSVFTKEVKEENRK
B8: the Leakage activity came out at 2% and the Relative activity of maturated deamidase (% initial rate) came to 73.

B9: Chryseobacterium sp-62563 propeptide F38A (protein)
chain: NQDPNLVAKESNETAMKDFGKTVPVGIEKEDGKFKISAMVTAQPYEIKDSKENAAYISMIKTAVENETPIHVFLKANTNEIAKVDKATDDDIRYFKSVFTKEVKEENRK
B9 displayed a Leakage activity of 2% and a Relative activity of maturated deamidase (% initial rate) of 72.

B10: Chryseobacterium sp-62563 propeptide K33E (protein)
chain: NQDPNLVAKESNETAMKDFGKTVPVGIEKEDGEFKISFMVTAQPYEIKDSKENAAYISMIKTAVENETPIHVFLKANTNEIAKVDKATDDDIRYFKSVFTKEVKEENRK
B10 registered a Leakage activity of 0% and a Relative activity of maturated deamidase (% initial rate) of 66.

B11: Chryseobacterium sp-62563 propeptide A42K (protein)
chain: NQDPNLVAKESNETAMKDFGKTVPVGIEKEDGKFKISFMVTKQPYEIKDSKENAAYISMIKTAVENETPIHVFLKANTNEIAKVDKATDDDIRYFKSVFTKEVKEENRK
B11 registered a Leakage activity of 0% and a Relative activity of maturated deamidase (% initial rate) above 100.

B12: Chryseobacterium sp-62563 propeptide Y45K (protein)
chain: NQDPNLVAKESNETAMKDFGKTVPVGIEKEDGKFKISFMVTAQPKEIKDSKENAAYISMIKTAVENETPIHVFLKANTNEIAKVDKATDDDIRYFKSVFTKEVKEENRK
The molecule B12 yielded a Leakage activity of 0% and a Relative activity of maturated deamidase (% initial rate) of 48.

B13: Chryseobacterium sp-62563 propeptide Q43H (protein)
chain: NQDPNLVAKESNETAMKDFGKTVPVGIEKEDGKFKISFMVTAHPYEIKDSKENAAYISMIKTAVENETPIHVFLKANTNEIAKVDKATDDDIRYFKSVFTKEVKEENRK
B13: the Leakage activity is 0%.

B14: Chryseobacterium sp-62563 propeptide V23S (protein)
chain: NQDPNLVAKESNETAMKDFGKTSPVGIEKEDGKFKISFMVTAQPYEIKDSKENAAYISMIKTAVENETPIHVFLKANTNEIAKVDKATDDDIRYFKSVFTKEVKEENRK
With B14, the Leakage activity is 10% and 7%; the NanoDSF thermal unfolding temperature turned out to be 69.8 ° C; the Relative activity of maturated deamidase (% initial rate) was determined as 94.

B15: Chryseobacterium sp-62563 propeptide Y45Q (protein)
chain: NQDPNLVAKESNETAMKDFGKTVPVGIEKEDGKFKISFMVTAQPQEIKDSKENAAYISMIKTAVENETPIHVFLKANTNEIAKVDKATDDDIRYFKSVFTKEVKEENRK
For B15, the Leakage activity is 6% and the Relative activity of maturated deamidase (% initial rate) was 88.

B16: Chryseobacterium sp-62563 propeptide Y45A (protein)
chain: NQDPNLVAKESNETAMKDFGKTVPVGIEKEDGKFKISFMVTAQPAEIKDSKENAAYISMIKTAVENETPIHVFLKANTNEIAKVDKATDDDIRYFKSVFTKEVKEENRK
B16 displayed a Leakage activity of 0% and a Relative activity of maturated deamidase (% initial rate) of 40.

B17: Chryseobacterium sp-62563 propeptide T41E (protein)
chain: NQDPNLVAKESNETAMKDFGKTVPVGIEKEDGKFKISFMVEAQPYEIKDSKENAAYISMIKTAVENETPIHVFLKANTNEIAKVDKATDDDIRYFKSVFTKEVKEENRK
As to B17, the Leakage activity is 0% and the Relative activity of maturated deamidase (% initial rate) amounted to 67.

B18: Chryseobacterium sp-62563 propeptide K35E (protein)
chain: NQDPNLVAKESNETAMKDFGKTVPVGIEKEDGKFEISFMVTAQPYEIKDSKENAAYISMIKTAVENETPIHVFLKANTNEIAKVDKATDDDIRYFKSVFTKEVKEENRK
B18: the Leakage activity stood at 0% and the Relative activity of maturated deamidase (% initial rate) is above 100.

B19: Chryseobacterium sp-62563 propeptide F38T (protein)
chain: NQDPNLVAKESNETAMKDFGKTVPVGIEKEDGKFKISTMVTAQPYEIKDSKENAAYISMIKTAVENETPIHVFLKANTNEIAKVDKATDDDIRYFKSVFTKEVKEENRK
B19 had a Leakage activity of 2% and a Relative activity of maturated deamidase (% initial rate) of 93.

B20: Chryseobacterium sp-62563 propeptide T41D (protein)
chain: NQDPNLVAKESNETAMKDFGKTVPVGIEKEDGKFKISFMVDAQPYEIKDSKENAAYISMIKTAVENETPIHVFLKANTNEIAKVDKATDDDIRYFKSVFTKEVKEENRK
In the case of B20, the Leakage activity worked out at 0%.

B21: Chryseobacterium sp-62563 propeptide F38C (protein)
chain: NQDPNLVAKESNETAMKDFGKTVPVGIEKEDGKFKISCMVTAQPYEIKDSKENAAYISMIKTAVENETPIHVFLKANTNEIAKVDKATDDDIRYFKSVFTKEVKEENRK
B21 yielded a Leakage activity of 26%, a NanoDSF thermal unfolding temperature of 76.2 ° C and a Relative activity of maturated deamidase (% initial rate) of 83.
